We go through one sequence from patent US9388233.

For the data set, the target named is I-SceI mutants selected from G13/P14/N15/K20 saturation library (UniProt P03882). Briefly: cell_activity. The settings on record: first selection round, library pool; individual mutants not given.
Sequence of UniProt P03882 (P03882 whole entry, change not shown): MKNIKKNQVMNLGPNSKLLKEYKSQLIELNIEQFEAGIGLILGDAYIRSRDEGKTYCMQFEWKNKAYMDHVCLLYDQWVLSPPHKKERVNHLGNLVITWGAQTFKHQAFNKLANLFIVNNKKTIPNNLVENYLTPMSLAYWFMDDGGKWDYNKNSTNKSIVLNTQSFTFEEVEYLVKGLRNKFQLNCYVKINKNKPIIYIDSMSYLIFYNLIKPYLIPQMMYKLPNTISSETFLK

With “TAGGGATAACAGGGGTCT (double strand) [T3i1]”, the activity (fold cell survival vs wild type) is 10.
